This note sets out measurements from patent US20150125449A1 (published 2015).

Experiment [1] addresses T1, Her2 on the surface of Her2-expressing cell lines (human, UniProt P04626 23-1255).
T1 construct: whole, on cells; The cell line of each value is named under assay; also called ErbB2; Her2 receptor
Nature of the experiment: flow cytometry, SKOV3 cells. For orientation: In flow cytometry, cells or beads pass a laser one at a time.

For experiment [2], the target named is T1, Her2 on the surface of Her2-expressing …. Put plainly: flow cytometry, SKBR3 cells.
Experiment [3] shares this target. Nature of the experiment: flow cytometry, MDA-MB-231 cells.
In the next experiment the target is Recombinant human HER2 (human, UniProt P04626 23-652). Put plainly: SPR, antibody captured on anti-human IgG, recombinant human HER2 as analyte, 1:1 Langmuir; average, n 4. A general note: Surface plasmon resonance follows binding to a sensor surface in real time, without labels.
Experiment [4] addresses T1, Her2 on the surface of Her2-expressing …. Put plainly: flow cytometry, SKOV3 cells. The source holds these as a separate data set.

B1: OA2-Fab-Her2 (antibody)
chain 1: not shown
chain 2: not shown
chain 3: EPKSSDKTHTCPPCPAPELLGGPSVFLFPPKPKDTLMISRTPEVTCVVVDVSHEDPEVKFNWYVDGVEVHNAKTKPREEQYNSTYRVVSVLTVLHQDWLNGKEYKCKVSNKALPAPIEKTISKAKGQPREPQVYVYPPSRDELTKNQVSLTCLVKGFYPSDIAVEWESNGQPENNYKTTPPVLDSDGSFALVSKLTVDKSRWQQGNVFSCSVMHEALHNHYTQKSLSLSPGK
With B1, the figures for the Bmax in experiment [1], in experiment [2] and in experiment [3] were 7070, 64800 and 412, respectively. Moreover, the dissociation constant Kd in experiment [1] worked out at 4.72 nM; in experiment [2], 10.8 nM; in experiment [3], 9.97 nM; in the experiment with Recombinant human HER2 it was 0.435 nM. Moreover, in the experiment with Recombinant human HER2, the koff is 0.000131 s⁻¹. Further, in the experiment with Recombinant human HER2, the kon was found to be 313000 M⁻¹ s⁻¹.

B2: OA4-scFv-BID2 (antibody)
chain 1: QVQLVQSGAEVKKPGESLKISCKGSGYSFTSYWIAWVRQMPGKGLEYMGLIYPGDSDTKYSPSFQGQVTISVDKSVSTAYLQWSSLKPSDSAVYFCARHDVGYCTDRTCAKWPEWLGVWGQGTLVTVSSGGGGSSGGGSGGGGSQSVLTQPPSVSAAPGQKVTISCSGSSSNIGNNYVSWYQQLPGTAPKLLIYDHTNRPAGVPDRFSGSKSGTSASLAISGFRSEDEADYYCASWDYTLSGWVFGGGTKLTVLGAAEPKSSDKTHTCPPCPAPELLGGPSVFLFPPKPKDTLMISRTPEVTCVVVDVSHEDPEVKFNWYVDGVEVHNAKTKPREEQYNSTYRVVSVLTVLHQDWLNGKEYKCKVSNKALPAPIEKTISKAKGQPREPQVYTYPPSRDELTKNQVSLTCLVKGFYPSDIAVEWESNGQPENNYKTTPPVLDSDGSFALVSKLTVDKSRWQQGNVFSCSVMHEALHNHYTQKSLSLSPGK
chain 2: not shown
As to B2, the Bmax in experiment [4] came to 7950.

As a reminder, the Kd is the free concentration of one partner at which half of the binding sites on the other are occupied at equilibrium, for simple one-to-one binding. Broadly, the koff is the rate constant with which the complex falls apart. Broadly, the kon is the rate constant with which the complex forms.
